Results: paper PMC9795039, “Kindlin2 enables EphB/ephrinB bi-directional signaling to support vascular development” (Life Science Alliance, 2022)
Numbering of substitutions follows the chain as printed. Names and notes keep the numbering of the source.

T1: his-tagged human full-length kindlin2 (human, UniProt Q96AC1 1-680)
T1 construct: human full-length kindlin2 in gWIZ vector; also called purified kindlin2; recombinant kindlin2; source: Expi293F cells, purified
T1 sequence (looked up): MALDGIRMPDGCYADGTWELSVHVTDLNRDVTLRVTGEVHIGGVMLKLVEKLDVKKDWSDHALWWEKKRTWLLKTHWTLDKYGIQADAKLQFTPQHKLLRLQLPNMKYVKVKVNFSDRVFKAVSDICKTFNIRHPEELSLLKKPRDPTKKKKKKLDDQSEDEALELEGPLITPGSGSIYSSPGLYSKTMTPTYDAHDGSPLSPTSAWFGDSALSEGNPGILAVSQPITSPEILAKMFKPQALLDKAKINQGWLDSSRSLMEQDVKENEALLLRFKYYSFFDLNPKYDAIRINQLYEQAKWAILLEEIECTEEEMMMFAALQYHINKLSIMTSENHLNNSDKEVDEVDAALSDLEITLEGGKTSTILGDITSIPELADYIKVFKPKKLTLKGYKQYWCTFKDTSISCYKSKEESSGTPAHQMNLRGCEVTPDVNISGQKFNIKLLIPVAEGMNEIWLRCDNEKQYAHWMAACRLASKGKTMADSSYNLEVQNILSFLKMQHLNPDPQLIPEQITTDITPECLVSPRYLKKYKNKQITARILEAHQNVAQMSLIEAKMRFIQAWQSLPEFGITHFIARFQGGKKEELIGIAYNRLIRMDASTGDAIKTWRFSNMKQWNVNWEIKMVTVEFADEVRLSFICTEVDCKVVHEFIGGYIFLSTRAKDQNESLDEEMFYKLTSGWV

B1: his/Avi-tagged cytoplasmic tail of ephrinB2 WT (domain or fragment, UniProt P52799 251-333, looked up)
chain: KYRRRHRKHSPQHTTTLSLSTLATPKRSGNNNGSEPSDIIIPLRTADSVFCPHYEKVSGDYGHPVYIVQEMPPQSPANIYYKV
modifications: biotinylated
notes: ephrinB2 cytoplasmic tail; Vector (his/Avi-tagged in pET15) and purification after Pfaff et al, 1998; The forward primer printed for the 4A construct reads KYRRR after the HindIII site, which may mark the start of the tail; also called ephrinB2 WT tail; ephrinB2 cytoplasmic tail; source: Escherichia coli (DE3), purified
B2: his/Avi-tagged cytoplasmic tail of ephrinB2 Y331A (domain or fragment, UniProt P52799 251-333, looked up)
chain: B1 chain with Y81A
modifications: biotinylated
notes: ephrinB2 cytoplasmic tail with Y331A; source: Escherichia coli (DE3), purified
B3: his/Avi-tagged cytoplasmic tail of ephrinB2 N328A (domain or fragment, UniProt P52799 251-333, looked up)
chain: B1 chain with N78A
modifications: biotinylated
notes: ephrinB2 cytoplasmic tail with N328A; source: Escherichia coli (DE3), purified
B4: his/Avi-tagged cytoplasmic tail of ephrinB2 2A (domain or fragment, UniProt P52799 251-333, looked up)
chain: B1 chain with N78A, Y81A
modifications: biotinylated
notes: ephrinB2 cytoplasmic tail with N328A and Y331A; also called double point mutation (N328A and Y331A); source: Escherichia coli (DE3), purified
B5: his/Avi-tagged cytoplasmic tail of ephrinB2 S325A (domain or fragment, UniProt P52799 251-333, looked up)
chain: B1 chain with S75A
modifications: biotinylated
notes: ephrinB2 cytoplasmic tail with S325A; source: Escherichia coli (DE3), purified

Molecular target: T1, his-tagged human full-length kindlin2
Test: pull-down; in vitro binding assay: purified kindlin2 mixed with purified cytoplasmic tails immobilised on NeutrAvidin beads; Western blot with anti-kindlin2 antibody
Conditions: both partners purified

Binder	binding result
B1	binds
B2	binds
B3	binds
B4	binds
B5	binds
